In the supplement of paper PMC9112550, “Optimization of the antimicrobial peptide Bac7 by deep mutational scanning” (BMC Biology, 2022):

Tested on: Escherichia coli TOP10
Assay: shrunken log2 fold change of peptide-encoding DNA abundance (4.5 h post-induction vs induction); higher = less antimicrobial activity (less host growth inhibition)
Settings: time post-induction: 4.5 h; library: site-saturation at positions 5, 18, 19, 20
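Further: peptides expressed intracellularly from a pBAD plasmid library in pooled LB shake-flask culture, induced with 0.3% L-arabinose, DNA abundance read by NGS, three biological replicates, DESeq2 with apeglm shrinkage.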

**Q.** RRIRGRPPRLPRPRPRPFKPPRP was tested. Which “shrunken log2 fold change” value did it give?
**A.** -0.0354

**Q.** RRIRMRPPRLPRPRPRPKWTPRP was tested. Which “shrunken log2 fold change” value did it give?
**A.** 0.0304

**Q.** With RRIRFRPPRLPRPRPRPDLCPRP as the sequence, how does the “shrunken log2 fold change” value read?
**A.** -0.0489

**Q.** Which “shrunken log2 fold change” value does the source give for RRIRQRPPRLPRPRPRPPNKPRP here?
**A.** 0.116

**Q.** Which “shrunken log2 fold change” value does the source give for RRIRYRPPRLPRPRPRPYFGPRP here?
**A.** 0.0143

**Q.** Which “shrunken log2 fold change” value does the source give for RRIRPRPPRLPRPRPRPHRIPRP here?
**A.** -0.414

**Q.** Which “shrunken log2 fold change” value does the source give for RRIRYRPPRLPRPRPRPLTLPRP here?
**A.** -0.267

**Q.** How did the “shrunken log2 fold change” value turn out when RRIRARPPRLPRPRPRPTACPRP was run?
**A.** 0.405

**Q.** Which “shrunken log2 fold change” value does the source give for RRIRQRPPRLPRPRPRPRKHPRP here?
**A.** 0.165

**Q.** How did the “shrunken log2 fold change” value turn out when RRIRNRPPRLPRPRPRPQSKPRP was run?
**A.** -0.301

**Q.** For RRIRVRPPRLPRPRPRPLKNPRP, which “shrunken log2 fold change” value is on record?
**A.** -0.0569

**Q.** With RRIRLRPPRLPRPRPRPDNSPRP as the sequence, how does the “shrunken log2 fold change” value read?
**A.** -0.0436

**Q.** With RRIRERPPRLPRPRPRPMHFPRP as the sequence, how does the “shrunken log2 fold change” value read?
**A.** -0.163

**Q.** With RRIRPRPPRLPRPRPRPWSRPRP as the sequence, how does the “shrunken log2 fold change” value read?
**A.** 0.298

**Q.** Which “shrunken log2 fold change” value does the source give for RRIRNRPPRLPRPRPRPDRPPRP here?
**A.** -0.151

**Q.** How did the “shrunken log2 fold change” value turn out when RRIRNRPPRLPRPRPRPVILPRP was run?
**A.** -0.61

**Q.** For RRIRERPPRLPRPRPRPPKRPRP, which “shrunken log2 fold change” value is on record?
**A.** 0.259

**Q.** With RRIRGRPPRLPRPRPRPQFHPRP as the sequence, how does the “shrunken log2 fold change” value read?
**A.** -0.239

**Q.** How did the “shrunken log2 fold change” value turn out when RRIRKRPPRLPRPRPRPPNVPRP was run?
**A.** 0.197

**Q.** With RRIRFRPPRLPRPRPRPSLSPRP as the sequence, how does the “shrunken log2 fold change” value read?
**A.** -0.623

**Q.** For RRIRKRPPRLPRPRPRPSPYPRP, which “shrunken log2 fold change” value is on record?
**A.** -0.0694

**Q.** For RRIRPRPPRLPRPRPRPIANPRP, which “shrunken log2 fold change” value is on record?
**A.** -0.12

**Q.** With RRIRFRPPRLPRPRPRPKYPPRP as the sequence, how does the “shrunken log2 fold change” value read?
**A.** -0.31

**Q.** How did the “shrunken log2 fold change” value turn out when RRIRVRPPRLPRPRPRPCMRPRP was run?
**A.** 0.108

**Q.** For RRIRWRPPRLPRPRPRPITAPRP, which “shrunken log2 fold change” value is on record?
**A.** 0.0334

**Q.** For RRIRQRPPRLPRPRPRPQTYPRP, which “shrunken log2 fold change” value is on record?
**A.** -0.958

**Q.** For RRIRKRPPRLPRPRPRPEMPPRP, which “shrunken log2 fold change” value is on record?
**A.** 0.668

**Q.** With RRIRQRPPRLPRPRPRPPRYPRP as the sequence, how does the “shrunken log2 fold change” value read?
**A.** 0.606

**Q.** How did the “shrunken log2 fold change” value turn out when RRIRERPPRLPRPRPRPMTNPRP was run?
**A.** -0.112

**Q.** How did the “shrunken log2 fold change” value turn out when RRIRDRPPRLPRPRPRPIHNPRP was run?
**A.** -0.06

**Q.** Which “shrunken log2 fold change” value does the source give for RRIRQRPPRLPRPRPRPSSHPRP here?
**A.** 0.0105

**Q.** With RRIRMRPPRLPRPRPRPVFRPRP as the sequence, how does the “shrunken log2 fold change” value read?
**A.** -0.0467

**Q.** How did the “shrunken log2 fold change” value turn out when RRIRERPPRLPRPRPRPLTLPRP was run?
**A.** -0.271

**Q.** With RRIRYRPPRLPRPRPRPNGAPRP as the sequence, how does the “shrunken log2 fold change” value read?
**A.** -0.0032

**Q.** With RRIRQRPPRLPRPRPRPWWNPRP as the sequence, how does the “shrunken log2 fold change” value read?
**A.** -0.123

**Q.** For RRIRVRPPRLPRPRPRPYDCPRP, which “shrunken log2 fold change” value is on record?
**A.** -0.9

**Q.** How did the “shrunken log2 fold change” value turn out when RRIRNRPPRLPRPRPRPINHPRP was run?
**A.** -0.705

**Q.** Which “shrunken log2 fold change” value does the source give for RRIRTRPPRLPRPRPRPVASPRP here?
**A.** 0.0362

**Q.** With RRIRIRPPRLPRPRPRPQDWPRP as the sequence, how does the “shrunken log2 fold change” value read?
**A.** -0.344

**Q.** RRIRQRPPRLPRPRPRPQFTPRP was tested. Which “shrunken log2 fold change” value did it give?
**A.** -0.177

**Q.** RRIRCRPPRLPRPRPRPKQFPRP was tested. Which “shrunken log2 fold change” value did it give?
**A.** -0.188

**Q.** For RRIRSRPPRLPRPRPRPVGEPRP, which “shrunken log2 fold change” value is on record?
**A.** 0.332

**Q.** RRIRWRPPRLPRPRPRPRIKPRP was tested. Which “shrunken log2 fold change” value did it give?
**A.** 0.0187

**Q.** RRIRKRPPRLPRPRPRPRIMPRP was tested. Which “shrunken log2 fold change” value did it give?
**A.** 0.0472

**Q.** RRIRLRPPRLPRPRPRPWFAPRP was tested. Which “shrunken log2 fold change” value did it give?
**A.** -0.112

**Q.** With RRIRQRPPRLPRPRPRPRHGPRP as the sequence, how does the “shrunken log2 fold change” value read?
**A.** -0.203

**Q.** RRIRERPPRLPRPRPRPRGCPRP was tested. Which “shrunken log2 fold change” value did it give?
**A.** 0.286

**Q.** Which “shrunken log2 fold change” value does the source give for RRIRPRPPRLPRPRPRPHCWPRP here?
**A.** 0.151

**Q.** With RRIRNRPPRLPRPRPRPWWVPRP as the sequence, how does the “shrunken log2 fold change” value read?
**A.** -0.226

**Q.** Which “shrunken log2 fold change” value does the source give for RRIRLRPPRLPRPRPRPEGGPRP here?
**A.** 0.0449

**Q.** With RRIRNRPPRLPRPRPRPKYCPRP as the sequence, how does the “shrunken log2 fold change” value read?
**A.** -0.225

**Q.** How did the “shrunken log2 fold change” value turn out when RRIRGRPPRLPRPRPRPTHQPRP was run?
**A.** 0.615

**Q.** Which “shrunken log2 fold change” value does the source give for RRIRRRPPRLPRPRPRPWNAPRP here?
**A.** -0.0963

**Q.** RRIRERPPRLPRPRPRPWCIPRP was tested. Which “shrunken log2 fold change” value did it give?
**A.** -1.84

**Q.** RRIRPRPPRLPRPRPRPNRGPRP was tested. Which “shrunken log2 fold change” value did it give?
**A.** 0.0424

**Q.** Which “shrunken log2 fold change” value does the source give for RRIRRRPPRLPRPRPRPDKGPRP here?
**A.** -0.0101

**Q.** For RRIRDRPPRLPRPRPRPHGPPRP, which “shrunken log2 fold change” value is on record?
**A.** 0.0119

**Q.** With RRIRKRPPRLPRPRPRPYWDPRP as the sequence, how does the “shrunken log2 fold change” value read?
**A.** -0.219

**Q.** Which “shrunken log2 fold change” value does the source give for RRIRMRPPRLPRPRPRPWPMPRP here?
**A.** 0.304

**Q.** For RRIRFRPPRLPRPRPRPYNTPRP, which “shrunken log2 fold change” value is on record?
**A.** -1.1

**Q.** RRIRVRPPRLPRPRPRPAPLPRP was tested. Which “shrunken log2 fold change” value did it give?
**A.** 0.255

**Q.** RRIRPRPPRLPRPRPRPTWNPRP was tested. Which “shrunken log2 fold change” value did it give?
**A.** 0.00306

**Q.** For RRIRMRPPRLPRPRPRPWVGPRP, which “shrunken log2 fold change” value is on record?
**A.** 0.171

**Q.** RRIRCRPPRLPRPRPRPDTNPRP was tested. Which “shrunken log2 fold change” value did it give?
**A.** -0.285

**Q.** RRIRVRPPRLPRPRPRPFKWPRP was tested. Which “shrunken log2 fold change” value did it give?
**A.** 0.00238

**Q.** RRIRYRPPRLPRPRPRPYIHPRP was tested. Which “shrunken log2 fold change” value did it give?
**A.** -1.31

**Q.** How did the “shrunken log2 fold change” value turn out when RRIRTRPPRLPRPRPRPWDNPRP was run?
**A.** -0.0778

**Q.** RRIRCRPPRLPRPRPRPRMIPRP was tested. Which “shrunken log2 fold change” value did it give?
**A.** 0.306

**Q.** How did the “shrunken log2 fold change” value turn out when RRIRLRPPRLPRPRPRPYLYPRP was run?
**A.** -0.164

**Q.** For RRIRQRPPRLPRPRPRPETCPRP, which “shrunken log2 fold change” value is on record?
**A.** 0.0408

**Q.** With RRIRDRPPRLPRPRPRPLIMPRP as the sequence, how does the “shrunken log2 fold change” value read?
**A.** -0.0616

**Q.** How did the “shrunken log2 fold change” value turn out when RRIRLRPPRLPRPRPRPSRFPRP was run?
**A.** -0.211

**Q.** RRIRCRPPRLPRPRPRPRAVPRP was tested. Which “shrunken log2 fold change” value did it give?
**A.** 0.405

**Q.** For RRIRMRPPRLPRPRPRPKETPRP, which “shrunken log2 fold change” value is on record?
**A.** 0.201

**Q.** Which “shrunken log2 fold change” value does the source give for RRIRMRPPRLPRPRPRPMFDPRP here?
**A.** -0.328
